Data from the supplement of paper PMC10567573.

B1: SOAT1 (parent)
chain: GVLILFLTFFAFLHCWLNAFAEML
B2: TIA1 (parent)
chain: TYECRCIGEEKEMWNFGEKYARF

Variants of: B1
Test: protein stability index of a GFP-peptide fusion (GPS, HEK-293T) (PSI 1-6); higher = more stable
Details: c terminus: a fixed tail appended
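Also: lentivirally expressed fusions sorted by FACS into six bins by GFP to DsRed ratio, PSI derived from sequencing read proportions per bin multiplied by bin number.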

Protein stability index of substitutions, site by site:
G1: I 3.7; S 4.28; M 2.94; Y 2.49; H 3.67; A 3.39; Q 2.35; F 2.2; R 4.47; W 1.61; K 2.23; E 3.49; N 3.26; C 2.93; T 3.35; V 3.18; P 3.53
L5: H 3.32; I 2.23; C 2.84; V 1.91; K 2.87; Y 3.59; M 1.72; N 3.7; W 2.17; A 2.42; E 3.38; R 2.57; D 4.32; Q 3.75; T 2.34; G 2.13
L7: A 3.84
V2: H 2.35; N 1.42; A 2.01; S 1.98; M 2.26; T 2.72; R 3.5; L 1.03; D 2.14; Q 2.56; E 2.17; K 2.31; W 2.95; I 2.62; P 1.74; C 2.05; Y 2.31; F 2.32
L3: H 2.34; R 2.98; W 3.13; V 3.82; T 3.86; D 2.13; Y 2.94; S 3.06; C 3.65; E 2.74; K 1.94; P 3.1; A 2.52; G 2.85; M 3.1; F 2.69
F6: R 3.83; M 1.35; H 2.63; T 2.02; D 1.78; Q 3.85; P 2.63; Y 3.06; A 3.95; S 2.73; I 2.63; G 1.72; V 3.25
I4: C 2.42; W 2.43; A 2.03; E 2.23; M 3.03; P 2.26; T 3.27; R 3.74; F 1.75; H 1.85; L 2.76; D 1.73; G 4.32; Y 3.33; K 1.43; S 2.66; Q 4.98; N 3.78; V 2.92

Variants of: B2
Test: as above
Details: c terminus: native

Protein stability index of substitutions, site by site:
Y20: L 1.54; K 3.52; Q 4; N 2.26; T 2.61; S 3.24; I 1.7; H 3.71; P 1.11; G 3.89; V 3.04; W 2.31; M 3.19
R22: V 2.84; T 2.49; S 2.29; C 1.36; P 1.92; K 3.59; D 3.77; L 1.01; Q 2.92; N 3.1; A 1.79; E 3.2; F 2.23; G 2.63; W 1.6; Y 1.81; M 1.51; H 2.82
F23: R 1.52; C 1.61; T 1.87; L 1.29; M 2.54; S 2.2; N 1.87; K 3.29; P 2.69; H 1.83; D 3.5; G 2.11; I 1.59; W 2.64; Q 1.48; A 3.29; Y 2.18; E 3.42
A21: Q 2.04; E 3.16; I 2.72; T 1.44; W 2.42; C 1.89; M 1.99; Y 1.89; S 1.97; H 3.06; V 2.37; R 2.71; D 3.1; F 2.02; P 3.79; G 2.11; L 2.19; K 2.8
